Results published in IntAct's records for PubMed 14527422.

B1: Cullin-3 (Schizosaccharomyces pombe (strain ATCC 38366 / 972)), Q09760 (parent)
chain: MQRSAKLKIRAPRKFSANQVDFATHWEVLQRAIGDIFQKSTSQLSFEELYRNAYILVLHKYGEKLYNHVQDVIRSRLKEETVPAIYKNYDASLLGNALLDIRKNDSYSTSWSRSLEAAHRFLSSLVNSWKDHIVSMQMISSVLKYLDKVYSKSADKVPVNENGIYIFREVVLLNSFEIGEKCVETILILVYLERKGNTINRPLINDCLDMLNSLPSENKKETLYDVLFAPKFLSYTRNFYEIESSTVIGVFGVVEYLKKAEKRFEEEKERSKNYLFTKIASPLLSVVEDELLSKHLDDLLENQSTGFFSMIDSSNFEGLQLVYESFSRVELGVKSLKKYLAKYVAHHGKLINETTSQALEGKMAVGRLSSNATMATLWVQKVLALWDRLNTIISTTMDADRSILNSLSDAFVTFVDGYTRAPEYISLFIDDNLKKDARKAIEGSIEATLQNSVTLFRFISEKDVFEKYYKTHLAKRLLNNRSISSDAELGMISRLKQEAGNVFTQKLEGMFNDMNLSQELLQEYKHNSALQSAKPALDLNVSILASTFWPIDLSPHKIKCNFPKVLLAQIDQFTDFYLSKHTGRKLLWYPSMGSADVRVNFKDRKYDLNVSTIASVILLLFQDLKENQCLIFEEILEKTNIEVGDLKRNLQSLACAKYKILLKDPKGREVNAGDKFYFNENFVSNLARIKISTVAQTRVEDDSERKRTLEKVDESRKHQADACIVRVMKDRKVCEHNQLMAEVTRQLNPRFHPSPMMIKRRIEALIEREYLQRQADNGRIYEYLA
partner: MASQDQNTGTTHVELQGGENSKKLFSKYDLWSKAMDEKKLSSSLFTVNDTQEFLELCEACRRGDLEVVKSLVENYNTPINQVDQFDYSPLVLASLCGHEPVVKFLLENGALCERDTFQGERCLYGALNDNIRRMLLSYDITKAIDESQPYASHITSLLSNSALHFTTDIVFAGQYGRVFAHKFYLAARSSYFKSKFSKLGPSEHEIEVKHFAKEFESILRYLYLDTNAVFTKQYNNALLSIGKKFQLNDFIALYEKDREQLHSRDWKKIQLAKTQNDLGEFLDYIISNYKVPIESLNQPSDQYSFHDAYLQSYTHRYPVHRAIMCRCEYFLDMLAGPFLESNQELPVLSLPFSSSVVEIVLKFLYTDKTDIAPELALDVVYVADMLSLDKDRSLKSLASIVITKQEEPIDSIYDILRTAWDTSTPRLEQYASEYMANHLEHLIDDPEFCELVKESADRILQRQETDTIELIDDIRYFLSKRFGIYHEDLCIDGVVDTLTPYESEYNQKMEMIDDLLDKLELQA
B2: BTB/POZ domain-containing protein 3 (Schizosaccharomyces pombe (strain ATCC 38366 / 972)), Q10225 (parent)
chain: B1 partner
partner: B1 chain

Variants of: B1
Settings: with btb3_schpo btb3, Q10225

effect of a mutation on the interaction	Variant
disrupting interaction	Y50G

Variants of: B2
Settings: with cul3_schpo cul3, Q09760

effect of a mutation on the interaction	Variant
disrupting interaction	MASQDQNTGTTHVELQGGENSKKLFSKYDLWSKAMDEKKLSSSLFTVNDTQEFLELCEACRRGDLEVVKSLVENYNTPINQVDQFDYSPLVLASLCGHEPVVKFLLENGALCERDTFQGERCLYGALNDNIRRMLLSYDITKAIDESQPYASHITSLLSNSALHFTTAIVFAGQYGRVFAHKFYLAARSSYFKSKFSKLGPSEHEIEVKHFAKEFESILRYLYLDTNAVFTKQYNNALLSIGKKFQLNDFIALYEKDREQLHSRDWKKIQLAKTQNDLGEFLDYIISNYKVPIESLNQPSDQYSFHDAYLQSYTHRYPVHRAIMCRCEYFLDMLAGPFLESNQELPVLSLPFSSSVVEIVLKFLYTDKTDIAPELALDVVYVADMLSLDKDRSLKSLASIVITKQEEPIDSIYDILRTAWDTSTPRLEQYASEYMANHLEHLIDDPEFCELVKESADRILQRQETDTIELIDDIRYFLSKRFGIYHEDLCIDGVVDTLTPYESEYNQKMEMIDDLLDKLELQA [D168A]
disrupting interaction	MASQDQNTGTTHVELQGGENSKKLFSKYDLWSKAMDEKKLSSSLFTVNDTQEFLELCEACRRGDLEVVKSLVENYNTPINQVDQFDYSPLVLASLCGHEPVVKFLLENGALCERDTFQGERCLYGALNDNIRRMLLSYDITKAIDESQPYASHITSLLSNSALHFTTDIVFAGQYGRVFALKFYLAARSSYFKSKFSKLGPSEHEIEVKHFAKEFESILRYLYLDTNAVFTKQYNNALLSIGKKFQLNDFIALYEKDREQLHSRDWKKIQLAKTQNDLGEFLDYIISNYKVPIESLNQPSDQYSFHDAYLQSYTHRYPVHRAIMCRCEYFLDMLAGPFLESNQELPVLSLPFSSSVVEIVLKFLYTDKTDIAPELALDVVYVADMLSLDKDRSLKSLASIVITKQEEPIDSIYDILRTAWDTSTPRLEQYASEYMANHLEHLIDDPEFCELVKESADRILQRQETDTIELIDDIRYFLSKRFGIYHEDLCIDGVVDTLTPYESEYNQKMEMIDDLLDKLELQA [H181L]
